Measurements as given in patent US20190022241A1.

Legend:
[1] = target: human SEZ6 on NTX tumor cells (human) (UniProt Q53EL9); assay: flow cytometry dot plot of LU64 NTX tumor cells, CD324 against MOPC isotype control
[2] = target: human SEZ6 on NTX tumor cells (human) (UniProt Q53EL9); assay: flow cytometry dot plot of LU86 NTX tumor cells, CD324 against MOPC isotype control
[3] = target: human SEZ6 on NTX tumor cells (human) (UniProt Q53EL9); assay: flow cytometry dot plot of LU117 NTX tumor cells, CD324 against MOPC isotype control

## MOPC (antibody)
[1]
  % of cells in the upper right quadrant (CD324+, MOPC+): 0.597%
[2]
  % of cells in the lower right quadrant (CD324-, MOPC+): 0.014%
  % of cells in the upper right quadrant (CD324+, MOPC+): 0.483%
[3]
  % of cells in the upper right quadrant (CD324+, MOPC+): 0.347%
